US20220204580A1 (AstraZeneca / MedImmune, published 2022)
Numbered stars: 1 amine (or outer) side, 2 acyl side, 3 side chain; on linkers, the order of the positions; unused ones are H or OH. Bridge positions count the residues as written; N and C are the ends. Square brackets hold non-standard residues; d marks the D form. Side chains are listed from the residue outwards. Ends that are not written are not given here. * marks the point of attachment. C18 diacid = O=C(O)CCCCCCCCCCCCCCCCC(=O)*; γGlu = O=C(O)[C@H](CCC(=O)[*:2])N[*:1]; αMeF = C[C@](N)(Cc1ccccc1)C(=O)O; Aib = CC(C)(N)C(=O)O

T1: human amylin receptor (calcitonin receptor co-expressed with receptor activity modifying protein, RAMP3) (human, UniProt P30988 25-474; O60896 24-148)
T1 sequence (looked up) 1: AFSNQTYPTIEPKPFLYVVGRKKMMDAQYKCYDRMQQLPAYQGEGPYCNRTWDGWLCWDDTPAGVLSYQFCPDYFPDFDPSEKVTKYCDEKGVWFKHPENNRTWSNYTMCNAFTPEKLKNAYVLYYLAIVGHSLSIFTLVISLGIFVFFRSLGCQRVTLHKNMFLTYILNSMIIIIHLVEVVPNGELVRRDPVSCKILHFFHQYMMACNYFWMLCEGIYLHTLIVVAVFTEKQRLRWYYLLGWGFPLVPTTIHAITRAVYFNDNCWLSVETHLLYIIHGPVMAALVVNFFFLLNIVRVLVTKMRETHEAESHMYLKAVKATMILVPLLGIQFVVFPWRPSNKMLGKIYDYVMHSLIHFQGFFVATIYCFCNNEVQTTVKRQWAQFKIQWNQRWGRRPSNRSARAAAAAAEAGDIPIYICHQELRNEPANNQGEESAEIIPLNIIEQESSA
T1 sequence (looked up) 2: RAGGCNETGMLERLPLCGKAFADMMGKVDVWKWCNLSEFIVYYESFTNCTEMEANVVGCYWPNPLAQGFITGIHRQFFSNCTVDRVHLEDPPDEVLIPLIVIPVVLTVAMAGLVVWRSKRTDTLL

T2: human calcitonin receptor (human, UniProt P30988 25-474)
T2 sequence (looked up): T1 sequence (looked up) 1

B1: Peptide 11 (SEQ ID NO: 11) (peptide)
peptide: K([γGlu-γGlu-C18 diacid])CNTATCATQRLAEFLRHSSNN[αMeF]GPILPPTNVGSNTY-NH2
modifications: disulfide 2-7; N-terminus assumed
SMILES: CC[C@H](C)[C@H](NC(=O)[C@@H]1CCCN1C(=O)CNC(=O)[C@](C)(Cc1ccccc1)NC(=O)[C@H](CC(N)=O)NC(=O)[C@H](CC(N)=O)NC(=O)[C@H](CO)NC(=O)[C@H](CO)NC(=O)[C@H](Cc1c[nH]cn1)NC(=O)[C@H](CCCNC(=N)N)NC(=O)[C@H](CC(C)C)NC(=O)[C@H](Cc1ccccc1)NC(=O)[C@H](CCC(=O)O)NC(=O)[C@H](C)NC(=O)[C@H](CC(C)C)NC(=O)[C@H](CCCNC(=N)N)NC(=O)[C@H](CCC(N)=O)NC(=O)[C@@H](NC(=O)[C@H](C)NC(=O)[C@@H]1CSSC[C@H](NC(=O)[C@@H](N)CCCCNC(=O)CC[C@H](NC(=O)CC[C@H](NC(=O)CCCCCCCCCCCCCCCCC(=O)O)C(=O)O)C(=O)O)C(=O)N[C@@H](CC(N)=O)C(=O)N[C@@H]([C@@H](C)O)C(=O)N[C@@H](C)C(=O)N[C@@H]([C@@H](C)O)C(=O)N1)[C@@H](C)O)C(=O)N[C@@H](CC(C)C)C(=O)N1CCC[C@H]1C(=O)N1CCC[C@H]1C(=O)N[C@H](C(=O)N[C@@H](CC(N)=O)C(=O)N[C@H](C(=O)NCC(=O)N[C@@H](CO)C(=O)N[C@@H](CC(N)=O)C(=O)N[C@H](C(=O)N[C@@H](Cc1ccc(O)cc1)C(N)=O)[C@@H](C)O)C(C)C)[C@@H](C)O
B2: Peptide 97 (SEQ ID NO: 97) (peptide)
peptide: K([γGlu-C18 diacid])KCNTATCATQRLANFL[Aib]HSSNNFGPILP[Aib]TNVGSNTY-NH2
modifications: disulfide 3-8; N-terminus assumed
SMILES: CC[C@H](C)[C@H](NC(=O)[C@@H]1CCCN1C(=O)CNC(=O)[C@H](Cc1ccccc1)NC(=O)[C@H](CC(N)=O)NC(=O)[C@H](CC(N)=O)NC(=O)[C@H](CO)NC(=O)[C@H](CO)NC(=O)[C@H](Cc1c[nH]cn1)NC(=O)C(C)(C)NC(=O)[C@H](CC(C)C)NC(=O)[C@H](Cc1ccccc1)NC(=O)[C@H](CC(N)=O)NC(=O)[C@H](C)NC(=O)[C@H](CC(C)C)NC(=O)[C@H](CCCNC(=N)N)NC(=O)[C@H](CCC(N)=O)NC(=O)[C@@H](NC(=O)[C@H](C)NC(=O)[C@@H]1CSSC[C@H](NC(=O)[C@H](CCCCN)NC(=O)[C@@H](N)CCCCNC(=O)CC[C@H](NC(=O)CCCCCCCCCCCCCCCCC(=O)O)C(=O)O)C(=O)N[C@@H](CC(N)=O)C(=O)N[C@@H]([C@@H](C)O)C(=O)N[C@@H](C)C(=O)N[C@@H]([C@@H](C)O)C(=O)N1)[C@@H](C)O)C(=O)N[C@@H](CC(C)C)C(=O)N1CCC[C@H]1C(=O)NC(C)(C)C(=O)N[C@H](C(=O)N[C@@H](CC(N)=O)C(=O)N[C@H](C(=O)NCC(=O)N[C@@H](CO)C(=O)N[C@@H](CC(N)=O)C(=O)N[C@H](C(=O)N[C@@H](Cc1ccc(O)cc1)C(N)=O)[C@@H](C)O)C(C)C)[C@@H](C)O

Key:
[1] = molecular target: T1, human amylin receptor (calcitonin …); test: cell-based or functional assay
[2] = molecular target: T2, human calcitonin receptor; test: cell-based or functional assay

Row | Binder | EC50 (cAMP production) [1] | Ratio (EC50 hCTR / EC50 hAMYR3) [1] | EC50 (cAMP production) [2]
1 | B1 | 0.177 nM | 21 | 3.64 nM
2 | B2 | 0.684 nM | 1 | 0.944 nM
